Experimental data published in the RNAGym collection of RNA variant scans (doi:10.7554/elife.80360).

B1: CPEB3 Ribozyme (parent)
chain: GGGGGCCACAGCAGAAGCGUUCACGUCGCGGCCCCUGUCAGAUUCUGGUGAAUCUGCGAAUUCUGCUGU

Variants of: B1
Experiment: self-cleavage, relative activity (ratio to wild type); higher = more cleavage; co-transcriptional

Variant	self-cleavage
A59G U67A	0.991
U61A G68C	0.947
U61A G68U	0.937
G56U A60G	0.712
G56U A60U	0.293
G58U G68C	1.03
G58U G68A	0.993
G58U G68U	0.966
A60U G65A	0.527
A60U G65U	0.43
A59G G68U	1.02
A59G G68A	1
G56U U64C	0.762
G58U U64C	0.959
G58U U64G	0.971
G58U U64A	0.956
U61C U67A	0.741
U61C U67C	0.764
C57U C63G	0.397
C57U C63A	0.438
A60G U67G	0.902

Variant	self-cleavage
A60G U67C	0.747
G58C U67C	0.961
G58C U67A	0.988
U61C C63U	0.425
U61C C63A	0.651
A60U U64C	0.445
G56U	0.968
G58A U62C	0.872
G56C C57U	0.483
G56C C57A	0.3
G56C C57G	0.343
A59C U64G	0.633
A59C U64A	0.471
G58A U64A	0.92
G58A U64C	0.861
C57G U62A	0.333
G58U U62G	1.01
G58U U62C	0.953
G58U U62A	0.958
G58A U69A	0.99
G58A U69G	1.02

Variant	self-cleavage
A60C C66U	0.412
A60C C66G	0.456
C57U U62C	0.41
C57U U62A	0.363
C57U U64G	0.365
C57A A60U	0.415
C57A A60C	0.264
A59G C63G	0.691
A59G C63A	0.857
G58C G68U	1.02
G58C G68A	1
G58C G68C	0.963
A59G U69G	1.07
A59G U69A	1.04
G58A A60C	0.495
G58A A60G	0.83
G58A A60U	0.919
C57U U61G	0.463
C57U U61C	0.371
A59U U62A	0.536
A59U U62C	0.546

Variant	self-cleavage
A59U U62G	0.394
G58U G65C	0.863
A60G U69G	1.01
A59U U64A	0.459
A59U U64C	0.558
A59U U64G	0.729
C57U G65A	0.357
C57U G65C	0.374
C57A U62C	0.339
C57A U62G	0.409
U61A U69A	0.958
G58C G65A	0.844
G58C G65U	0.842
C57A G65A	0.346
A59C C66A	0.365
A59C C66G	0.441
G58C U61G	0.912
G58C U61A	0.877
C57U A59G	0.354
C57U A59U	0.256
G58A G68A	0.944
